In patent US20240327534A1 (HARPOON THERAPEUTICS, published 2024):
Changes are numbered by the printed parent chain. Blank lines part the entries; values can stand above or below the binder they belong to.

Tests used:
[1] = target: T1, human BCMA on BCMA expressing cell lines (human, UniProt Q02223 1-184); experiment: cell-based or functional assay
T1 sequence: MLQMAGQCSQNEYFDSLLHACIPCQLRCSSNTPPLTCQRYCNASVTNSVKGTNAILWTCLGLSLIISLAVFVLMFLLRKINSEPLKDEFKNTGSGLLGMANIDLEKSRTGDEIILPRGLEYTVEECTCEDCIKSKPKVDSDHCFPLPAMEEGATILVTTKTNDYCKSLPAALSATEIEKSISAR

human BCMA protein = target: T2, human BCMA protein (human, UniProt Q02223 1-54, limits assumed); experiment: affinity to human BCMA protein, method not stated
T2 sequence: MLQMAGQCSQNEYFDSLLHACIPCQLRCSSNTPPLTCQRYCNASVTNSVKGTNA

B1: BCMA targeting trispecific protein 253BH10 (other, not shown: large carriers; small tags and cut ends)
VHH: QVQLVESGGGLVQPGESLRLSCAASTNIFSISPMGWYRQAPGKQRELVAAIHGFSTLYADSVKGRFTISRDNAKNTIYLQMNSLKPEDTAVYYCNKVPWGDYHPRNVYWGQGTQVTVSS
notes: trispecific; described as a molecule with the parental CDRs; also called BH253
TDCC EC50 (EJM cells) [1]: 0.0529 nM
Kd (human BCMA protein): 27.7 nM

B2: BCMA targeting trispecific protein 01C06 (other, not shown: large carriers; small tags and cut ends)
VHH: B1 VHH with Q1E, E16R, R19T, F54D, T76S, K85R, V91L, D101K
notes: trispecific
TDCC EC50 (EJM cells) [1]: 0.0251 nM
Kd (human BCMA protein): 18.8 nM

B6: BCMA targeting trispecific protein 01E04 (other, not shown: large carriers; small tags and cut ends)
VHH: B1 VHH with Q1E, E16R, R19T, F29A, F54T, T76S, K85R, V91L, R105G
notes: trispecific
TDCC EC50 (EJM cells) [1]: 0.00267 nM
Kd (human BCMA protein): 7.29 nM

B8: BCMA targeting trispecific protein 01A02 (other, not shown: large carriers; small tags and cut ends)
VHH: B1 VHH with Q1E, E16R, R19T, I31S, H52N, T76S, K85R, V91L, Y108H
notes: trispecific
TDCC EC50 (EJM cells) [1]: 0.0218 nM
Kd (human BCMA protein): 21.5 nM

B9: BCMA targeting trispecific protein 01D02 (other)
VHH: B1 VHH with Q1E, E16R, R19T, F29V, F54K, T76S, K85R, V91L, R105G
notes: trispecific; not shown: the C-terminal His6 follows those missing domains and is left out
TDCC EC50 (EJM cells) [1]: 0.00225 nM
Kd (human BCMA protein): 7.35 nM

B10: BCMA targeting trispecific protein 01E05 (other)
VHH: B1 VHH with Q1E, E16R, R19T, I31R, F54T, T76S, K85R, V91L, D101K
notes: trispecific; not shown: the C-terminal 6xHis tag follows those missing domains and is left out
TDCC EC50 (EJM cells) [1]: 0.0108 nM
Kd (human BCMA protein): 11.7 nM

B12: BCMA targeting trispecific protein 01C02 (other)
VHH: B1 VHH with Q1E, E16R, R19T, F29E, F54N, T76S, K85R, V91L, D101R
notes: trispecific; not shown: The C-terminal 6xHis tag is left out because it follows these missing domains
TDCC EC50 (EJM cells) [1]: 0.0373 nM
Kd (human BCMA protein): 20 nM

B13: BCMA targeting trispecific protein 01C10 (other, not shown: large carriers; small tags and cut ends)
VHH: B1 VHH with Q1E, E16R, R19T, F29S, T76S, K85R, V91L, D101Y
notes: trispecific
TDCC EC50 (EJM cells) [1]: 0.208 nM
Kd (human BCMA protein): 46.4 nM

B14: BCMA targeting trispecific protein 01C07 (other, not shown: large carriers; small tags and cut ends)
VHH: B1 VHH with Q1E, E16R, R19T, S32Y, L57Y, T76S, K85R, V91L, D101S
notes: trispecific
TDCC EC50 (EJM cells) [1]: 0.0833 nM
Kd (human BCMA protein): 19.8 nM

B15: BCMA targeting trispecific protein 01A07 (other)
VHH: B1 VHH with Q1E, E16R, R19T, F29S, F54T, T76S, K85R, V91L, R105G
notes: as for B9
TDCC EC50 (EJM cells) [1]: 0.00249 nM
Kd (human BCMA protein): 6.95 nM

B16: BCMA targeting trispecific protein 01F10 (other)
VHH: B1 VHH with Q1E, E16R, R19T, T26S, F54E, T76S, K85R, V91L, Y108T
notes: as for B10
TDCC EC50 (EJM cells) [1]: 0.00744 nM
Kd (human BCMA protein): 14.4 nM

B17: BCMA targeting trispecific protein 01B12 (other, not shown: large carriers; small tags and cut ends)
VHH: B1 VHH with Q1E, E16R, R19T, I31T, S55Q, T76S, K85R, V91L, Y108V
notes: trispecific
TDCC EC50 (EJM cells) [1]: 0.0273 nM
Kd (human BCMA protein): 20.7 nM

B19: BCMA targeting trispecific protein 01C04 (other)
VHH: B1 VHH with Q1E, E16R, R19T, F29P, F54D, T76S, K85R, V91L
notes: trispecific; not shown: anti-albumin domain, anti-CD3 domain and the linkers of the trispecific (TriTAC) chain; the C-terminal 6xHis tag follows these missing domains and is left out
TDCC EC50 (EJM cells) [1]: 0.0175 nM
Kd (human BCMA protein): 21.6 nM

B22: BCMA targeting trispecific protein 01B06 (other)
VHH: B1 VHH with Q1E, E16R, R19T, F54D, T76S, K85R, V91L, D101E
notes: as for B10
TDCC EC50 (EJM cells) [1]: 0.00697 nM
Kd (human BCMA protein): 9.1 nM

B24: BCMA targeting trispecific protein 01E10 (other)
VHH: B1 VHH with Q1E, E16R, R19T, F29E, F54K, T76S, K85R, V91L, N106R
notes: trispecific; not shown: the C-terminal 6xHis tag follows those domains and is left out
TDCC EC50 (EJM cells) [1]: 0.0623 nM
Kd (human BCMA protein): 18.5 nM

B25: BCMA targeting trispecific protein 01B03 (other, not shown: large carriers; small tags and cut ends)
VHH: B1 VHH with Q1E, E16R, R19T, I31K, F54K, T76S, K85R, V91L, Y108V
notes: trispecific
TDCC EC50 (EJM cells) [1]: 0.0964 nM
Kd (human BCMA protein): 26.2 nM

The remaining binders from weak to strong by Kd (human BCMA protein), led by results:

TDCC EC50 (EJM cells) [1]: 0.225 nM
Kd (human BCMA protein): 41.3 nM
B20: BCMA targeting trispecific protein 01F02 (other)
VHH: B1 VHH with Q1E, E16R, R19T, I31H, F54T, T76S, K85R, V91L, D101R
notes: trispecific; not shown: anti-albumin domain, anti-CD3 domain and the linkers of the trispecific; the C-terminal His6 that follows them is left out

TDCC EC50 (EJM cells) [1]: 0.0461 nM
Kd (human BCMA protein): 30.8 nM
B4: BCMA targeting trispecific protein 01A03 (other, not shown: large carriers; small tags and cut ends)
VHH: B1 VHH with Q1E, E16R, R19T, M34G, F54S, T76S, K85R, V91L
notes: trispecific

TDCC EC50 (EJM cells) [1]: 0.0876 nM
Kd (human BCMA protein): 25.6 nM
B23: BCMA targeting trispecific protein 01B08 (other, not shown: large carriers; small tags and cut ends)
VHH: B1 VHH with Q1E, E16R, R19T, F29E, F54S, T76S, K85R, V91L, D101R
notes: trispecific

TDCC EC50 (EJM cells) [1]: 0.0264 nM
Kd (human BCMA protein): 21.3 nM
B3: BCMA targeting trispecific protein 01A01 (other, not shown: large carriers; small tags and cut ends)
VHH: B1 VHH with Q1E, E16R, R19T, N27D, F54G, T76S, K85R, V91L, Y108A
notes: trispecific

TDCC EC50 (EJM cells) [1]: 0.0149 nM
Kd (human BCMA protein): 20.9 nM
B11: BCMA targeting trispecific protein 01D03 (other)
VHH: B1 VHH with Q1E, E16R, R19T, I31N, F54D, T76S, K85R, V91L, Y108R
notes: trispecific; not shown: anti-albumin domain, anti-CD3 domain and the linkers of the trispecific (TriTAC) format

TDCC EC50 (EJM cells) [1]: 0.0192 nM
Kd (human BCMA protein): 19.9 nM
B5: BCMA targeting trispecific protein 01E07 (other)
VHH: B1 VHH with Q1E, E16R, R19T, F29P, F54Q, T76S, K85R, V91L, Y108Q
notes: as for B19

TDCC EC50 (EJM cells) [1]: 0.359 nM
Kd (human BCMA protein): 18.8 nM
B7: BCMA targeting trispecific protein 01B02 (other)
VHH: B1 VHH with Q1E, E16R, R19T, F29T, H52S, T76S, K85R, V91L, K96E
notes: as for B20

TDCC EC50 (EJM cells) [1]: 0.0166 nM
Kd (human BCMA protein): 17.8 nM
B21: BCMA targeting trispecific protein 01D05 (other)
VHH: B1 VHH with Q1E, E16R, R19T, I31D, F54T, T76S, K85R, V91L
notes: as for B19

TDCC EC50 (EJM cells) [1]: 0.00425 nM
Kd (human BCMA protein): 11.7 nM
B18: BCMA targeting trispecific protein 01A08 (other, not shown: large carriers; small tags and cut ends)
VHH: B1 VHH with Q1E, E16R, R19T, I31S, F54E, T76S, K85R, V91L, N106K
notes: trispecific
